Columns and labels:
40 kDa protease = target: T1, 40 kDa protease (Homo sapiens, UniProt Q96IY4, A169T/A260V/E345D/I347T/R257S); assay: Inhibition of natural brain APP degradation by the 40 kDa protease (Western blot, anti Aβ 1/14 or anti APP-CT antibody); type: biochemical; details: 37° C., 3 h
T1 construct: The 40 kDa proteolytic activity from fraction 19 was trapped in the column and recovered by elution; from tissue; host or cells: human hippocampus (autopsy brain)
T1 sequence (Q96IY4 23-360 isoform Q96IY4-2 A169T/R220S/A223V/E308D/I310T limits assumed): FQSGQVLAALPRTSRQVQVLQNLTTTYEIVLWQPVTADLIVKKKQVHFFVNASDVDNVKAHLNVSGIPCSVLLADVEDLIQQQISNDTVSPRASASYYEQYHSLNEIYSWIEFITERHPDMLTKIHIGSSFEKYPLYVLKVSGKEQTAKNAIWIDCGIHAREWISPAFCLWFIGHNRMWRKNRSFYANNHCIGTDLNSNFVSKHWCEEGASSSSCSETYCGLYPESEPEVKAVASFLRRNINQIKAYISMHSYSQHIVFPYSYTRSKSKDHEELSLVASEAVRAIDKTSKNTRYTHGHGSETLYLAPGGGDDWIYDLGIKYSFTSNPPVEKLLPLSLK
Experimental: After separation of proteins by SDS-PAGE, proteins on the gel was blotted onto a Hybond C nitrocellulose membrane (Amersham Pharmacia, UK), after which non-specific binding was blocked by immersing the membrane in 5% bovine serum albumin for 1 h in Tris-buffered saline: 100 mM Tris-HCl (pH 7.5), 140 mM NaCl and 0.1% Tween 20. The membrane next was washed for 45 min with three changes of the above buffer then incubated at 4° C. for 16 h with the first antibody (anti Aβ 1/14 antibody) appropriately diluted with Tris-buffered saline. After again washing it as above, the membrane was incubated at room temperature for 1 h with a horseradish peroxidase-labeled anti rabbit second antibody diluted 1:2000. After the washing, signals were detected on X-ray film using an ECL chemiluminescence detection system (Amersham Pharmacia, UK).

synthetic Aβ 1-42 = assay: Carboxypeptidase digestion of synthetic Aβ 1-42 (Western blot); type: biochemical; details: 0.01 pM to 0.2 pM enzyme, 0.1 pM substrate, 37° C., 16 hours
From the text: (§1) In Western blot analysis, low-molecular weight peptides (in which several amino acids have shifted) can be confirmed by anti-Aβ-N-terminus antibody regarding the Aβ 1-40 substrate, however this cannot be confirmed by the anti-Aβ 40 fragment antibody. On the other hand, low-molecular weight peptides (in which several amino acids have shifted) can be confirmed by anti-Aβ-N-terminus antibody regarding the Aβ 1-42 substrate, however this cannot be confirmed by the anti-Aβ 42 fragment antibody.

natural brain APP = assay: Proteolysis of natural brain APP by the isolated 40 kDa protease (Western blot); type: biochemical, human; details: 0.1 pmol APP, 0.005 to 0.1 pmol protease, 37° C., 3 h, 1 mM Zn2+; generates 5.5 kDa fragment
Experimental: In the proteolytic analysis of the fractions for natural brain APP, approximately 0.1 pmol of natural brain APP prepared from human hippocampus was incubated at 37° C. for 3 h with each fraction (approximately 0.05 pmol) in the presence of 1 mM Zn^2+. To obtain proteolytic activities of interest, each reaction mixture was loaded in parallel wells for SDS-PAGE then subjected to Western blot analysis using anti Aβ 1/14 antibody (Calbiochem) as follows.
After separation of proteins by SDS-PAGE, proteins on the gel was blotted onto a Hybond C nitrocellulose membrane (Amersham Pharmacia, UK), after which non-specific binding was blocked by immersing the membrane in 5% bovine serum albumin for 1 h in Tris-buffered saline: 100 mM Tris-HCl (pH 7.5), 140 mM NaCl and 0.1% Tween 20. The membrane next was washed for 45 min with three changes of the above buffer then incubated at 4° C. for 16 h with the first antibody (anti Aβ 1/14 antibody) appropriately diluted with Tris-buffered saline. […] After the washing, signals were detected on X-ray film using an ECL chemiluminescence detection system (Amersham Pharmacia, UK).
The brain APP substrate (approximately 0.1 pmol) was treated with the 40 kDa protease (0.005 to 0.1 pmol) at 37° C. for 3 h in the presence of 1 mM Zn^2+ to analyze the isolated 40 kDa protease. The reaction product analyzed by Western blotting with anti Aβ 1/14 antibody (FIG. 2). […]

synthetic Aβ 1-40 = assay: Carboxypeptidase digestion of synthetic Aβ 1-40 (Western blot); type: biochemical; details: 0.01 pM to 0.2 pM enzyme, 0.1 pM substrate, 37° C., 16 hours
From the text: as §1

[1] = Stability of proteolytic activity of native-PAGE fraction; type: physicochemical
From the text: Of the 61 fractions analyzed, fraction 19 with a molecular mass of about 40 kDa and fraction 11 with a molecular mass of about 30 kDa had similar proteolytic activities. […] Fraction 19 with the 40 kDa molecular mass with proteolytic activity therefore was further purified.

chondroitinase ABC
inhibition of brain APP degradation reaction (40 kDa protease; APP pretreated with 0.5 pmol chondroitinase ABC, FIG. 2 lane 3): almost completely inhibited

potato carboxypeptidase inhibitor: potato carboxypeptidase inhibitor (BioPur, Switzerland) (QQHADPICNKPCKTHDDCSGAWFCQACWNSARTCGPYVG)
inhibition of brain APP degradation reaction (40 kDa protease; 1 mM potato carboxypeptidase inhibitor, 1 mM Zn2+, FIG. 2 lane 4): completely inhibited

B1: 40 kDa protein: 40 kDa protease purified from human hippocampal homogenate; brain carboxypeptidase B (SEQ ID NO: 2) (protein, listed as Homo sapiens)
chain: MKLCSLAVLVPIVLFCEQHVFAFQSGQVLAALPRTSRQVQVLQNLTTTYEIVLWQPVTADLIVKKKQVHFFVNASDVDNVKAHLNVSGIPCSVLLADVEDLIQQQISNDTVSPRASASYYEQYHSLNEIYSWIEFITERHPDMLTKIHIGSSFEKYPLYVLKVSGKEQTAKNAIWIDCGIHAREWISPAFCLWFIGHNRMWRKNRSFYANNHCIGTDLNSNFVSKHWCEEGASSSSCSETYCGLYPESEPEVKAVASFLRRNINQIKAYISMHSYSQHIVFPYSYTRSKSKDHEELSLVASEAVRAIDKTSKNTRYTHGHGSETLYLAPGGGDDWIYDLGIKYSFTSNPPVEKLLPLSLK
formation of low-molecular weight peptides from Aβ 1-42 (synthetic Aβ 1-42): low-molecular weight peptides formed in a dose-dependent manner
degradation of natural brain APP (natural brain APP): degraded natural brain APP
formation of low-molecular weight peptides from Aβ 1-40 (synthetic Aβ 1-40): low-molecular weight peptides formed in a dose-dependent manner

B2: fraction 11: native-PAGE fraction of about 30 kDa with proteolytic activity; mature form of HBCPB (protein)
chain: ASASYYEQYHSLNEIYSWIEFITERHPDMLTKIHIGSSFEKYPLYVLKVSGKEQTAKNAIWIDCGIHAREWISPAFCLWFIGHNRMWRKNRSFYANNHCIGTDLNRNFASKHWCEEGASSSSCSETYCGLYPESEPEVKAVASFLRRNINQIKAYISMHSYSQHIVFPYSYTRSKSKDHEELSLVASEAVRAIEKTSKNTRYTHGHGSETLYLAPGGGDDWIYDLGIKYSFTSNPPVEKLLPLSLK
activity after long-term storage ([1]; 2 w at −20° C.): lost its activity
time to loss of proteolytic activity ([1]; room temperature): ≤ 30 min

From patent publication US7972771B2, “Human brain carboxypeptidase B” (priority 1999, dated 2011)
